Test results published in publication PMC9378563.

What was measured:
[1] = target: L21A variant of HIV-1 gp41 Core (Core^L21A) (HIV-1 (HXB2 numbering named)); experiment: NMR, 1H-15N HSQC resonance amplitudes of trimer and monomer
[2] = target: L21A variant of HIV-1 gp41 Core (Core^L21A) (HIV-1 (HXB2 numbering named)); experiment: NMR, 15N ZZ exchange
[3] = target: L21A variant of HIV-1 gp41 Core (Core^L21A) (HIV-1 (HXB2 numbering named)); experiment: SEC-MALS

Substance: L21A variant of HIV-1 gp41 Core (Core^L21A) (domain or fragment)
- Kd = [M]^3/([T][B]^2) (6HB trimer + 2 bicelles to 3 lipid-bound monomers) [1]: 2.8
- population of the lipid-bound (monomeric) state [1]: 71%
- kex (koff[B]^2 + 3kon[M]^2) [2]: 1.05 s⁻¹
- stoichiometry N [3]: 3
